From patent US20090068679A1 come the findings set out here.

The target of assay [1] is recombinant human PlGF (R&D Systems, Catalog No. 264-PG/CF) (human) (UniProt P49763). Briefly: sandwich ELISA: mAb coated 3 ug/ml; PlGF 25 ng/ml; anti-PlGF-POD. A general note: ELISA stands for enzyme-linked immunosorbent assay.
The target is the same in assay [2]. Briefly: sandwich ELISA: mAb coated 3 ug/ml; PlGF 50 ng/ml; anti-PlGF-POD.
Assay [3] has the same target. Briefly: sandwich ELISA: mAb coated 3 ug/ml; PlGF 0.78 ng/ml; anti-PlGF-POD.
The target is the same in assay [4]. Briefly: sandwich ELISA: mAb coated 3 ug/ml; PlGF 1.56 ng/ml; anti-PlGF-POD.
The target is the same in assay [5]. Briefly: sandwich ELISA: mAb coated 3 ug/ml; PlGF 12.5 ng/ml; anti-PlGF-POD.
The target is the same in assay [6]. Briefly: sandwich ELISA: mAb coated 3 ug/ml; PlGF 3.13 ng/ml; anti-PlGF-POD.
For assay [7] the target is unchanged. Briefly: sandwich ELISA: mAb coated 3 ug/ml; PlGF 6.25 ng/ml; anti-PlGF-POD.
Assay [8] has the same target. Briefly: sandwich ELISA: mAb 0.1 ug/ml on anti-mouse IgG plate, PlGF 0.1 ug/ml, anti-PlGF-POD.
For assay [9] the target is unchanged. Briefly: sandwich ELISA: mAb 1.0 ug/ml on anti-mouse IgG plate, PlGF 0.1 ug/ml, anti-PlGF-POD.
Assay [10] concerns the target P/GF/sFlt-1 complex (gP/GF) (human) (UniProt P49763). Briefly: ELISA: PlGF 1 ug/ml on plate-captured Flt-1/Fc 1 ug/ml; mAb 0.1 ug/ml; anti-mouse IgG-POD.
Assay [11] shares this target. Briefly: ELISA: PlGF 1 ug/ml on plate-captured Flt-1/Fc 1 ug/ml; mAb 1.0 ug/ml; anti-mouse IgG-POD.
Assay [12] has the same target. Briefly: sandwich ELISA: mAb coated 3 ug/ml; PlGF 25 + Flt-1/Fc 400 (ng/ml) pre-incubated; anti-VEGF R1-POD.
Assay [13] has the same target. Briefly: sandwich ELISA: mAb coated 3 ug/ml; PlGF 0.39 + Flt-1/Fc 400 (ng/ml) pre-incubated; anti-VEGF R1-POD.
The target is the same in assay [14]. Briefly: sandwich ELISA: mAb coated 3 ug/ml; PlGF 0.78 + Flt-1/Fc 400 (ng/ml) pre-incubated; anti-VEGF R1-POD.
For assay [15] the target is unchanged. Briefly: sandwich ELISA: mAb coated 3 ug/ml; PlGF 1.56 + Flt-1/Fc 400 (ng/ml) pre-incubated; anti-VEGF R1-POD.
Assay [16] has the same target. Briefly: sandwich ELISA: mAb coated 3 ug/ml; PlGF 12.5 + Flt-1/Fc 400 (ng/ml) pre-incubated; anti-VEGF R1-POD.
Assay [17] shares this target. Briefly: sandwich ELISA: mAb coated 3 ug/ml; PlGF 3.13 + Flt-1/Fc 400 (ng/ml) pre-incubated; anti-VEGF R1-POD.
The target is the same in assay [18]. Briefly: sandwich ELISA: mAb coated 3 ug/ml; PlGF 6.25 + Flt-1/Fc 400 (ng/ml) pre-incubated; anti-VEGF R1-POD.

Take antibody MAB264 from R&D Systems: the Extinction at 450 nm worked out at 1.47 in assay [1]; 2.5 in assay [2]; 0.05 in assay [3]; 0.081 in assay [4]; 0.885 in assay [5]; 0.232 in [6]. In addition, the Extinction at 450 nm in assay [7] stood at 0.468; in assay [8], 1.9; in [9] it was 2.5; in assay [10], 0.217; in assay [11] it was 0.691; in [12], 2.19. Besides, the Extinction at 450 nm in assay [13] was found to be 0.094; in [14], 0.146; in assay [15], 0.272; in [16] it was 1.61; in [17], 0.529; in assay [18], 0.883.
